# B1: HAI-2: recombinantly expressed soluble hepatocyte growth factor activator inhibitor-2, a bi-Kunitz inhibitor (protein)
# chain: ADRERSIHDFCLVSKVVGRCRASMPRWWYNVTDGSCQLFVYGGCDGNSNNYLTKEECLKKCATVTENATGDLATSRNAADSSVPSAPRRQDSEDHSSDMFNYEEYCTANAVTGPCRASFPRWYFDVERNSCNNFIYGGCRGNKNSYRSEEACMLRCFRQQENPPLPLGSK
# B2: Matriptase: matriptase protease domain expressed in E. coli (protein)
# chain: VVGGTDADEGEWPWQVSLHALGQGHICGASLISPNWLVSAAHCYIDDRGFRYSDPTQWTAFLGLHDQSQRSAPGVQERRLKRIISHPFFNDFTFDYDIALLELEKPAEYSSMVRPICLPDASHVFPAGKAIWVTGWGHTQYGGTGALILQKGEIRVINQTTCENLLPQQITPRMMCVGFLSGGVDSCQGDSGGPLSSVEADGRIFQAGVVSWGDGCAQRNKPGVYTRLPLFRDWIKENTGV
# B3: Plasmin: Lys-plasmin from Heamatologic Technologies Inc., known pro-uPA activator (protein)
# chain: KVYLSECKTGNGKNYRGTMSKTKNGITCQKWSSTSPHRPRFSPATHPSEGLEENYCRNPDNDPQGPWCYTTDPEKRYDYCDILECEEECMHCSGENYDGKISKTMSGLECQAWDSQSPHAHGYIPSKFPNKNLKKNYCRNPDRELRPWCFTTDPNKRWELCDIPRCTTPPPSSGPTYQCLKGTGENYRGNVAVTVSGHTCQHWSAQTPHTHNRTPENFPCKNLDENYCRNPDGKRAPWCHTTNSQVRWEYCKIPSCDSSPVSTEQLAPTAPPELTPVVQDCYHGDGQSYRGTSSTTTTGKKCQSWSSMTPHRHQKTPENYPNAGLTMNYCRNPDADKGPWCFTTDPSVRWEYCNLKKCSGTEASVVAPPPVVLLPDVETPSEEDCMFGNGKGYRGKRATTVTGTPCQDWAAQEPHRHSIFTPETNPRAGLEKNYCRNPDGDVGGPWCYTTNPRKLYDYCDVPQCAAPSFDCGKPQVEPKKCPGRVVGGCVAHPHSWPWQVSLRTRFGMHFCGGTLISPEWVLTAAHCLEKSPRPSSYKVILGAHQEVNLEPHVQEIEVSRLFLEPTRKDIALLKLSSPAVITDKVIPACLPSPNYVVADRTECFITGWGETQGTFGAGLLKEAQLPVIENKVCNRYEFLNGRVQSTELCAGHLAGGTDSCQGDSGGPLVCFEKDKYILQGVTSWGLGCARPNKPGVYVRVSRFVTWIEGVMRNN
# Assays:
# pro-uPA = target: T1, pro-uPA (Homo sapiens, UniProt P00749); assay: First-order kinetics of pro-uPA activation by serine proteases; format: biochemical; conditions: for Added pro-uPA converted during the experiment / First-order rate constant k ± SD: 30 nM pro-uPA, 3 nM enzyme; for First-order rate constant k ± SD: room temperature, 5 experiments; for Efficiency of pro-uPA activation compared to matriptase: kcat/Km ratio
# T1 construct: time-dependent cleavage of the single-chain form into the two-chain form; purchased Cortex Biochem (San Leandro, Calif.)
# Method: The Km and kcat values for pro-uPA activation could not be accurately determined because the pro-uPA stock solution from the supplier (0.8 mg/ml) was not sufficiently high. Therefore, we chose to determine the first-order rate constant k as a measure of pro-uPA conversion efficiency. It was ensured that the pro-uPA concentration used (30 nM) was in the range of first-order kinetics for the enzymes tested, i.e. hepsin, plasmin and matriptase. The rate of uPA formation by these enzymes was linear up to 200 nM of pro-uPA. Pro-uPA (30 nM) was added to the enzymes (3 nM) in Hepes buffer to start the reaction at room temperature. At various time points, 50-μl aliquots were removed and added to 150 μl of 667 nM HAI-2 (final concentration in 250 μl was 400 nM) in Hepes buffer to stop further pro-uPA cleavage. […] Our results on HAI-2 inhibition of plasmin and HGFA (data not shown) were consistent with the published data (26,27). After addition of 50 μl of 2.5 mM S2444, the increase in absorbance at 405 nm was measured on a kinetic microplate reader. The concentration of uPA in each aliquot was calculated from a standard curve of enzymatically converted pro-uPA. The data were expressed as the decrease in the concentration of pro-uPA (log [pro-uPA]) as function of time. The first-order rate constant k was calculated from the slope using the equation
# log [S]=−(k/2.3)t+log [S]0
# where [S] is the concentration of pro-uPA and [S]0 is the initial pro-uPA concentration. The catalytic efficiency, kcat/Km, was then calculated using the known enzyme concentration [E] and the relationship k=(kcat/Km)[E]. The values are the average of 5 experiments±SD.
# pro-tPA = target: T2, pro-tPA (Homo sapiens, UniProt P00750); assay: Pro-tPA cleavage analysed by SDS-PAGE; format: biochemical; conditions: 1.5 μM pro-tPA, 15 nM enzyme, 10 and 60 min
# T2 construct: purchased Biodesign International (Saco, Me.)
# T2 sequence (P00750 36-562): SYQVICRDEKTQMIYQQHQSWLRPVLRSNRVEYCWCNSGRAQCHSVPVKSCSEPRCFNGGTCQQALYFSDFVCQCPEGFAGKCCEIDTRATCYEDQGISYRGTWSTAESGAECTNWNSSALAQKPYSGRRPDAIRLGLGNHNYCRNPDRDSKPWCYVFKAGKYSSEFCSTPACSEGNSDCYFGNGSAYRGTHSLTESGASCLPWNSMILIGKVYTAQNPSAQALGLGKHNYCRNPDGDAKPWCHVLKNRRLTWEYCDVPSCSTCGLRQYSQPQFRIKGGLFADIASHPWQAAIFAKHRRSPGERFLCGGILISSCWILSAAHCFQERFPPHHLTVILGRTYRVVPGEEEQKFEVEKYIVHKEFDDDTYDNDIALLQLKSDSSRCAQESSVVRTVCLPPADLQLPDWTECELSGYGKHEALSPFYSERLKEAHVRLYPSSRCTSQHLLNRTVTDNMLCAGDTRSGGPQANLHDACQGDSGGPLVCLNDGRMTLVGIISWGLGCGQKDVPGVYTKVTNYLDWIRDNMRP
# Method: Pro-uPA at a concentration of 1.5 μM was incubated with 15 nM hepsin or 15 nM plasmin in Hepes buffer at room temperature. […] The samples were analyzed by SDS-PAGE using a 4-20% gradient gel (Invitrogen; Carlsbad, Calif.). Protein was visualized after staining with SimplyBlue Safe Stain (Invitrogen). Experiments with pro-tPA (1.5 μM) were carried out identically, except that the buffer used was 50 mM sodium phosphate pH 7.5, 200 mM arginine, 0.01% Tween-20.
# [1] = tested on: LnCaP-34 cells (hepsin-overexpressing); assay: Pro-uPA activation by LnCaP-34 cells (two-stage enzymatic assay); format: cell-based, human
# Method: (§1) Confluent LnCaP-34 and LnCaP-17 cells were washed with HBSA-Glucose buffer (20 mM Hepes pH 7.5, 150 mM NaCl, 5 mM CaCl2, 0.05 mg/ml BSA, 5 mM glucose) and 0.8 ml of 100 nM pro-uPA in pre-warmed HBSA-Glucose buffer was added to the cell layers. The inhibitors KD1 or HI-10331 were added to give final concentrations of 1 μM and 10 μM, respectively. The culture plates were kept at 37° C. and 50 μl samples were withdrawn at different time points, supplemented with 0.2 ml of […] S2444 in Hepes buffer and the increase in absorbance at 405 nm measured on a kinetic microplate reader. Cell numbers were determined at the end of the experiments. The concentration of formed uPA in each sample was calculated from a standard curve of enzymatically converted pro-uPA and normalized to 10^6 cells. After subtracting the background levels of uPA formed in the absence of cell layer, the linear rates of uPA formation/10^6 cells were determined.
# LnCaP-17 cells = assay: Pro-uPA activation by LnCaP-17 cells (two-stage enzymatic assay); format: cell-based, human
# Method: as §1
# [2] = tested on: LnCaP-34 cells (hepsin-overexpressing); assay: Pro-uPA conversion by LnCaP-34 cells, immunoblotting; format: cell-based, human; conditions: LnCaP-34, 30 nM pro-uPA, 1 h, 3 h, 5 h, 37° C.
# Method: For immunoblotting experiments, confluent LnCaP-34 cell layers were washed as above and incubated with 30 nM pro-uPA at 37° C. After 1 hr, 3 hr and 5 hr, aliquots were taken and immediately added to SDS sample buffer. The proteins were separated by SDS-PAGE and transferred onto nitrocellulose filters using the Bio-Rad Semi Dry Transfer system. Pro-uPA and uPA were visualized by using a rabbit polyclonal anti-uPA antibody (Cell Sciences; Canton, Mass.) followed by HRP-conjugated anti-rabbit antibody (Jackson ImmunoResearch Laboratory; West Grove, Pa.) and ECL (GE Healthcare; Piscataway, N.J.) enhancement.
# uPA [3] = target: T3, uPA (Homo sapiens, UniProt P00749); assay: Chromogenic activity towards S2444 of samples withdrawn from LnCaP cell layers; format: biochemical; conditions: data not shown
# T3 construct: two-chain form consisting of the 20 kDa A-chain and the 30 kDa B-chain (protease domain); purchased American Diagnostica (Greenwich, Conn.)
# Method: as §1
# uPA [4] = target: T3, uPA; conditions: reference 21; cited from earlier work
# uPA [5] = target: T3, uPA; assay: Enzymatic assay of uPA with chromogenic substrate S2444; format: biochemical; conditions: 10 nM uPA, S2444 at Km; read-out: Ki* (apparent equilibrium dissociation constant) ± SD
# Method: The reversible active site inhibitor HI-10331 (Genentech, Inc.) (having the molecule structure depicted in FIG. 10, and disclosed in U.S. Pat. No. 6,472,393) or HAI-2 were incubated with 0.5 nM hepsin, 0.5 nM matriptase and 10 nM uPA for 30 min in Hepes buffer (20 mM Hepes, pH 7.5, 150 mM NaCl, 5 mM CaCl2, 0.01% Triton X-100) at room temperature. The chromogenic substrates S2366 (for hepsin), S2765 (for matriptase) and S2444 (for uPA) were added at a concentration corresponding to their respective Km values, which were determined in separate experiments. After substrate addition, the linear rates of the increase in absorbance at 405 nm was measured on a kinetic microplate reader (Molecular Devices, Sunnyvale, Calif.).
# The Ki values were calculated according to the relationship Ki=IC50/(1+[S]/Km) (23) using the experimentally determined IC50 and Km values for each enzyme-substrate pair. For HAI-2, the apparent Ki values (Ki^*) were determined by fitting the data to the equation for tight binding inhibition (24,25).
molecule,measurement,setting,value
"Hepsin: soluble His-tagged extracellular domain of human hepsin (Arg45-Leu417), baculovirus expressed",Added pro-uPA converted during the experiment,pro-uPA,about 70%
same,First-order rate constant k ± SD,pro-uPA,87.1 ± 11.3 10^−3 min^−1
same,Efficiency of pro-uPA activation compared to matriptase,pro-uPA,about 6 fold
same,Cleavage of pro-tPA,pro-tPA,does not cleave
"KD1: Kunitz domain-1 inhibitor derived from HAI-1B, produced in E. coli (TEDYCLASNKVGRCRGSFPRWYYDPTEQICKSFVYGGCLGNKNNYLREEECILACRGV)",Inhibition of pro-uPA cleavage,"[1]; LnCaP-34, 1 μM KD1",almost completely inhibited
same,Rate of pro-uPA activation per 10^6 cells ± SD,"[1]; LnCaP-34, 1 μM KD1, 100 nM pro-uPA, 37° C.",0.2 ± 0.1 nM uPA hr^−1
same,Inhibition of pro-uPA cleavage,"LnCaP-17 cells; LnCaP-17, 1 μM KD1",almost completely inhibited
same,Rate of pro-uPA activation per 10^6 cells ± SD,"LnCaP-17 cells; LnCaP-17, 1 μM KD1, 100 nM pro-uPA, 37° C.",0.2 ± 0.2 nM uPA hr^−1
same,Inhibition of pro-uPA cleavage (immunoblot),[2],strongly inhibited
same,Inhibition of chromogenic activity of the withdrawn samples,uPA [3],not inhibited
same,Inhibition of uPA,uPA [4],does not inhibit
B1,Ki,uPA [5],> 1000 nM
B2,First-order rate constant k ± SD,pro-uPA,14.2 ± 4.9 10^−3 min^−1
B3,Added pro-uPA converted during the experiment,pro-uPA,about 70%
same,First-order rate constant k ± SD,pro-uPA,81.5 ± 14.2 10^−3 min^−1
same,Efficiency of pro-uPA activation compared to matriptase,pro-uPA,about 6 fold

# — patent US20130022611A1, “METHODS AND COMPOSITIONS FOR MODULATING HEPSIN ACTIVATION OF UROKINASE-TYPE PLASMINOGEN ACTIVATOR” (Genentech, Inc., priority 2006, published 2013)
